Results as given in article PMC7440919, “Cryo-EM structure of the lysosomal chloride-proton exchanger CLC-7 in complex with OSTM1” (eLife, 2020).

B1: human CLC-7 (natural protein, UniProt P51798 1-805, looked up)
chain: MANVSKKVSWSGRDRDDEEAAPLLRRTARPGGGTPLLNGAGPGAARQSPRSALFRVGHMSSVELDDELLDPDMDPPHPFPKEIPHNEKLLSLKYESLDYDNSENQLFLEEERRINHTAFRTVEIKRWVICALIGILTGLVACFIDIVVENLAGLKYRVIKGNIDKFTEKGGLSFSLLLWATLNAAFVLVGSVIVAFIEPVAAGSGIPQIKCFLNGVKIPHVVRLKTLVIKVSGVILSVVGGLAVGKEGPMIHSGSVIAAGISQGRSTSLKRDFKIFEYFRRDTEKRDFVSAGAAAGVSAAFGAPVGGVLFSLEEGASFWNQFLTWRIFFASMISTFTLNFVLSIYHGNMWDLSSPGLINFGRFDSEKMAYTIHEIPVFIAMGVVGGVLGAVFNALNYWLTMFRIRYIHRPCLQVIEAVLVAAVTATVAFVLIYSSRDCQPLQGGSMSYPLQLFCADGEYNSMAAAFFNTPEKSVVSLFHDPPGSYNPLTLGLFTLVYFFLACWTYGLTVSAGVFIPSLLIGAAWGRLFGISLSYLTGAAIWADPGKYALMGAAAQLGGIVRMTLSLTVIMMEATSNVTYGFPIMLVLMTAKIVGDVFIEGLYDMHIQLQSVPFLHWEAPVTSHSLTAREVMSTPVTCLRRREKVGVIVDVLSDTASNHNGFPVVEHADDTQPARLQGLILRSQLIVLLKHKVFVERSNLGLVQRRLRLKDFRDAYPRFPPIQSIHVSQDERECTMDLSEFMNPSPYTVPQEASLPRVFKLFRALGLRHLVVVDNRNQVVGLVTRKDLARYRLGKRGLEELSLAQT
notes: CLC-7 (CLCN7) chloride-proton exchanger, human; synthesized gene (SynBio); called full-length in the results for the human CLC-7 expressed alone; the methods describe only the mCerulean construct used for the complex with OSTM1; also called hsCLC-7; hsCLCN7; not shown: mCerulean, C-terminal, cleaved

Columns and labels:
[1] = target: chicken CLC-7 (Gallus gallus (chicken)); assay: cryo-EM structure; purified ggCLC-7 at 2 mg/ml in LMNG, 50 mM Tris-HCl pH 8, 150 mM KCl, 2 mM DTT; C2 symmetry imposed
[2] = target: the molecule itself; assay: cryo-EM structure; purified co-expressed hsCLC-7/OSTM1 complex at 2 mg/ml, supplemented with 1 mM ATP and 0.1% LMNG; 50 mM Tris-HCl pH 8, 150 mM KCl, 2 mM DTT; C2 symmetry imposed, local refinements
human CLC-7 = target: B1; assay: as above; conditions: both partners purified

stoichiometry N [1] | binding result (human CLC-7) | Molecule | stoichiometry N [2]
2 | – | chicken CLC-7 (natural protein) | –
– | binds | human osteopetrosis-associated transmembrane protein 1 (OSTM1) (natural protein, N-linked carbohydrate at asparagines 93, 128, 163, 184, 194, 263 and 274; five disulfide bonds in the luminal domain, OSTM1, human, single-pass transmembrane protein; synthesized gene (SynBio); C-terminal cytoplasmic domain disordered in the structure; Printed residue numbers appear to count on the precursor; also called hsOSTM1; beta-subunit of CLC-7; not shown: mVenus, C-terminal, cleaved) ALPFGSSPHRVFHDLLSEQQLLEVEDLSLSLLQGGGLGPLSLPPDLPDLDPECRELLLDFANSSAELTGCLVRSARPVRLCQTCYPLFQQVVSKMDNISRAAGNTSESQSCARSLLMADRMQIVVILSEFFNTTWQEANCANCLTNNSEELSNSTVYFLNLFNHTLTCFEHNLQGNAHSLLQTKNYSEVCKNCREAYKTLSSLYSEMQKMNELENKAEPGTHLCIDVEDAMNITRKLWSRTFNCSVPCSDTVPVIAVSVFILFLPVVFYLSSFLHSEQKKRKLILPKRLKSSTSFANIQENSN | 2
– | – | B1 | 2
